Substrate in this data set: Nc1ncnc2c1ncn2[C@@H]1O[C@H](COP(=O)(O)OP(=O)(O)OP(=O)(O)O)[C@@H](O)[C@H]1O
The data set is described as follows: Km [ATP] by ADP-Glo lipid kinase assay with PIP2:PS substrate. Conditions: MgCl2. The class given is biochemical, Homo sapiens.

Usually Km stands for the substrate concentration at which the rate is half of its maximum. As a reminder, the Vmax is the top rate of the reaction or transport when substrate is in excess.

B1: p110β (Homo sapiens) (protein)
chain: MCFSFIMPPAMADILDIWAVDSQIASDGSIPVDFLLPTGIYIQLEVPREATISYIKQMLWKQVHNYPMFNLLMDIDSYMFACVNQTAVYEELEDETRRLCDVRPFLPVLKLVTRSCDPGEKLDSKIGVLIGKGLHEFDSLKDPEVNEFRRKMRKFSEEKILSLVGLSWMDWLKQTYPPEHEPSIPENLEDKLYGGKLIVAVHFENCQDVFSFQVSPNMNPIKVNELAIQKRLTIHGKEDEVSPYDYVLQVSGRVEYVFGDHPLIQFQYIRNCVMNRALPHFILVECCKIKKMYEQEMIAIEAAINRNSSNLPLPLPPKKTRIISHVWENNNPFQIVLVKGNKLNTEETVKVHVRAGLFHGTELLCKTIVSSEVSGKNDHIWNEPLEFDINICDLPRMARLCFAVYAVLDKVKTKKSTKTINPSKYQTIRKAGKVHYPVAWVNTMVFDFKGQLRTGDIILHSWSSFPDELEEMLNPMGTVQTNPYTENATALHVKFPENKKQPYYYPPFDKIIEKAAEIASSDSANVSSRGGKKFLPVLKEILDRDPLSQLCENEMDLIWTLRQDCREIFPQSLPKLLLSIKWNKLEDVAQLQALLQIWPKLPPREALELLDFNYPDQYVREYAVGCLRQMSDEELSQYLLQLVQVLKYEPFLDCALSRFLLERALGNRRIGQFLFWHLRSEVHIPAVSVQFGVILEAYCRGSVGHMKVLSKQVEALNKLKTLNSLIKLNAVKLNRAKGKEAMHTCLKQSAYREALSDLQSPLNPCVILSELYVEKCKYMDSKMKPLWLVYNNKVFGEDSVGVIFKNGDDLRQDMLTLQMLRLMDLLWKEAGLDLRMLPYGCLATGDRSGLIEVVSTSETIADIQLNSSNVAAAAAFNKDALLNWLKEYNSGDDLDRAIEEFTLSCAGYCVASYVLGIGDRHSDNIMVKKTGQLFHIDFGHILGNFKSKFGIKRERVPFILTYDFIHVIQQGKTGNTEKFGRFRQCCEDAYLILRRHGNLFITLFALMLTAGLPELTSVKDIQYLKDSLALGKSEEEALKQFKQKFDEALRESWTTKVNWMAHTVRKDYRS
notes: GST-His6-p110β+myc-p85α; with p85α (PIK3R1)
Take B1: the Michaelis constant (Km) is 507.5 ± 66.3 µM and the maximum rate (Vmax) amounted to 1.13 µmol/min/mg.

B2: p110β^E1051K (Homo sapiens; E1051K) (protein)
chain: MCFSFIMPPAMADILDIWAVDSQIASDGSIPVDFLLPTGIYIQLEVPREATISYIKQMLWKQVHNYPMFNLLMDIDSYMFACVNQTAVYEELEDETRRLCDVRPFLPVLKLVTRSCDPGEKLDSKIGVLIGKGLHEFDSLKDPEVNEFRRKMRKFSEEKILSLVGLSWMDWLKQTYPPEHEPSIPENLEDKLYGGKLIVAVHFENCQDVFSFQVSPNMNPIKVNELAIQKRLTIHGKEDEVSPYDYVLQVSGRVEYVFGDHPLIQFQYIRNCVMNRALPHFILVECCKIKKMYEQEMIAIEAAINRNSSNLPLPLPPKKTRIISHVWENNNPFQIVLVKGNKLNTEETVKVHVRAGLFHGTELLCKTIVSSEVSGKNDHIWNEPLEFDINICDLPRMARLCFAVYAVLDKVKTKKSTKTINPSKYQTIRKAGKVHYPVAWVNTMVFDFKGQLRTGDIILHSWSSFPDELEEMLNPMGTVQTNPYTENATALHVKFPENKKQPYYYPPFDKIIEKAAEIASSDSANVSSRGGKKFLPVLKEILDRDPLSQLCENEMDLIWTLRQDCREIFPQSLPKLLLSIKWNKLEDVAQLQALLQIWPKLPPREALELLDFNYPDQYVREYAVGCLRQMSDEELSQYLLQLVQVLKYEPFLDCALSRFLLERALGNRRIGQFLFWHLRSEVHIPAVSVQFGVILEAYCRGSVGHMKVLSKQVEALNKLKTLNSLIKLNAVKLNRAKGKEAMHTCLKQSAYREALSDLQSPLNPCVILSELYVEKCKYMDSKMKPLWLVYNNKVFGEDSVGVIFKNGDDLRQDMLTLQMLRLMDLLWKEAGLDLRMLPYGCLATGDRSGLIEVVSTSETIADIQLNSSNVAAAAAFNKDALLNWLKEYNSGDDLDRAIEEFTLSCAGYCVASYVLGIGDRHSDNIMVKKTGQLFHIDFGHILGNFKSKFGIKRERVPFILTYDFIHVIQQGKTGNTEKFGRFRQCCEDAYLILRRHGNLFITLFALMLTAGLPELTSVKDIQYLKDSLALGKSEEEALKQFKQKFDEALRKSWTTKVNWMAHTVRKDYRS
notes: as for B1
With B2, the Km is 314.3 ± 36.8 µM and the Vmax was found to be 1.4 µmol/min/mg.
